Here are results for 1 substance from US20160145321A1.

Assay in all cases: cell-based or functional assay
The target in assay [1] is G protein of RSV B/18537 (virus, ATCC Cat. No. VR-1580) (Respiratory syncytial virus B/18537) (UniProt P20896).
Assay [2] has as its target G protein of RSV A/A2 (virus, ATCC Cat. No. VR-1540) (Respiratory syncytial virus A/A2) (UniProt P03423).
The target in assay [3] is G protein of RSV A/Long (virus, ATCC Cat. No. VR-26) (Respiratory syncytial virus A/Long) (UniProt P20895).

As for “CR9514 (an antibody based on 3D3, comprising the heavy and light chain variable region of 3D3)”, the values for the Neutralization IC50 (plaque reduction assay, Vero cells) in assay [1], in assay [2] and in assay [3] were 0.033 µg/mL, 0.0407 µg/mL and 0.017 µg/mL, respectively.
